Where no end group is shown, it is not given here.
Tests used:
12mTau-acK280 peptide [1] = molecular target: T1, 12mTau-acK280 peptide (human); assay: BLI
T1 chain: VQIINK(Ac)KLDLSN

12mTau-acK280 peptide [2] = molecular target: T1, 12mTau-acK280 peptide; assay: BLI

B1: Y01, monoclonal anti–tau-acK280 antibody (antibody, V domains shown)
VH: QVQLQESGPGLVKPSQTLSLTCTVSGDSITSGYWNWIRQPPGKGLEYIGYIRYSGRTYYNPSLKSRVTISRDTSKNQFSLKLSSVTAADTAVYYCASVYFTYWGQGTLVTVSS
VL: DVVMTQTPLSLPVTLGQPASISCKSSQSLLDSDGKTYLNWFQQRPGQSPKRLISLVSKLDSGVPDRFSGSGSGTDFTLKISRVEAEDVGVYYCWQGSHFPYTFGQGTKLEIK
Kd (12mTau-acK280 peptide [1]): 0.257 nM | koff (12mTau-acK280 peptide [2]): 0.000115 s⁻¹
